Data on 1 substance can be found in publication PMC4453223.

The target of this experiment is microtubule (MT) filaments.

DmK-4AA, sequence (P17210 other isoform, or with tags, fused parts or gaps): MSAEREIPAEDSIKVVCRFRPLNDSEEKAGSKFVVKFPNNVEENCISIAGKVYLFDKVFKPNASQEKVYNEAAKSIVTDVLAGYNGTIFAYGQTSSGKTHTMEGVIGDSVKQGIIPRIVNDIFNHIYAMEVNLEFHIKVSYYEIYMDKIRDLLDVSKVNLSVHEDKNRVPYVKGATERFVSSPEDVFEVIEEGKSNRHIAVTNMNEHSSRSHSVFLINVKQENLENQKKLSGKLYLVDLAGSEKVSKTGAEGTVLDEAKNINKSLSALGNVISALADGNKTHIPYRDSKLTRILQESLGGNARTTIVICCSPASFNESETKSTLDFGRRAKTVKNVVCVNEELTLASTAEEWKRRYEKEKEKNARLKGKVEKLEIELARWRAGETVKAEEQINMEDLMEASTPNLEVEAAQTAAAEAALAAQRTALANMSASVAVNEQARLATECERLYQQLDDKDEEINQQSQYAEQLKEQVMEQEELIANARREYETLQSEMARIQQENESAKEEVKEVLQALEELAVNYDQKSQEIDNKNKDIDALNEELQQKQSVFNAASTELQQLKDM

As to “DmK-4AA (from UniProt P17210 1-559) (domain or fragment)”, the half-site mantADP release (stopped flow): share of motors releasing mantADP from both heads upon the addition of MTs was 16%.
